# In the RNAGym collection of RNA variant scans (doi:10.7554/elife.80360):
# B1: CPEB3 Ribozyme (parent)
# chain: GGGGGCCACAGCAGAAGCGUUCACGUCGCGGCCCCUGUCAGAUUCUGGUGAAUCUGCGAAUUCUGCUGU
# Variants of: B1
# Assay: self-cleavage, relative activity (ratio to wild type); higher = more cleavage; co-transcriptional
row,Variant,self-cleavage
1,U38A G48U,0.957
2,U38A G48C,0.887
3,U38A G48A,0.938
4,G37U U43C,0.236
5,G37U U43A,0.209
6,U38A U43C,0.9
7,U38A U43G,0.8
8,G37U U62G,0.332
9,G37U U62A,0.227
10,U38C U44A,0.891
11,U38C U44C,0.856
12,G37U U67G,0.304
13,G37U U67A,0.293
14,G37U U67C,0.317
15,U38G C45A,0.286
16,U38G C45U,0.28
17,C39G G56C,0.938
18,C39G G56A,0.882
19,C39G,0.967
20,C39A,0.903
21,G37U A59U,0.197
22,C39A C63A,0.465
23,C39A C63G,0.407
24,C39A C63U,0.776

row,Variant,self-cleavage
1,U38G C54A,0.304
2,U38C G65A,0.746
3,U38C G65U,0.495
4,U38C G65C,0.519
5,C39A A40U,0.475
6,C39A A40C,0.835
7,C39A A40G,0.841
8,U38A U53C,0.811
9,C39A U46C,0.808
10,C39A U46G,0.957
11,C39G C66U,0.961
12,C39G C66G,0.566
13,U38G G47A,0.272
14,U38G G47U,0.219
15,U38G A60G,0.249
16,U38G A60U,0.331
17,U38C C57G,0.369
18,U38G G50U,0.271
19,U38C C39G,0.448
20,U38C C39U,0.702
21,U38C C39A,0.299
22,C39G A59U,0.587
23,C39G A59C,0.488
24,U38G U64C,0.235

row,Variant,self-cleavage
1,U38G U64A,0.163
2,U38G U64G,0.25
3,U38G U69C,0.412
4,U38G U69A,0.352
5,U38G U69G,0.42
6,U38C G50C,0.942
7,U38C G50A,0.948
8,U38C U43A,0.8
9,U38C U43C,0.858
10,U38C U46C,0.966
11,U38C U46A,0.943
12,U38A A40U,0.692
13,U38A U55C,0.846
14,U38A U55A,0.779
15,U38A U55G,0.758
16,C39A G56U,0.984
17,C39A G56C,0.904
18,C39A G56A,0.898
19,G37U U69C,0.533
20,U38G A52G,0.327
21,U38G A52C,0.275
22,U38A A42U,0.817
23,U38G A59G,0.132
24,U38G A59C,0.232

row,Variant,self-cleavage
1,G37U U44G,0.231
2,G37U U44A,0.213
3,U38C A59U,0.316
4,C39A G41U,0.277
5,U38G U43C,0.161
6,U38G U43A,0.247
7,U38G U43G,0.213
8,C39G A42C,0.553
9,C39G A42G,0.739
10,C39G A42U,0.725
11,U38G C39A,0.8
12,U38G C57A,0.161
13,U38G C57U,0.282
14,U38A U49C,0.899
15,U38A U49A,0.846
16,U38A U49G,0.962
17,U38C A60C,0.293
18,U38C A60G,0.78
19,U38A U67G,0.9
20,U38A U67A,0.941
21,U38G U49A,0.178
22,U38G U49C,0.231
23,U38G U49G,0.264
24,U38G G56U,0.672

row,Variant,self-cleavage
1,U38G G56A,0.722
2,U38G G56C,0.237
3,C39A A42G,0.35
4,C39A A42C,0.476
5,U38A A51U,0.84
6,C39A G50U,0.847
7,C39A G50C,0.602
8,C39A G50A,0.912
9,C39A A52G,0.833
10,C39A A52C,0.67
11,C39A A52U,0.673
12,U38C A52C,0.921
13,U38C A40G,0.842
14,U38C A40C,0.77
15,U38C A40U,0.889
16,C39A A51G,0.802
17,C39A A51C,0.654
18,U38C C66G,0.717
19,U38C C66A,0.687
20,C39G G48A,0.957
21,C39G G48U,0.966
22,C39G G47A,0.996
23,C39G G47C,0.986
24,C39G G47U,0.989

row,Variant,self-cleavage
1,G37U G48A,0.388
2,G37U G48U,0.322
3,C39G A60C,0.265
4,C39G A60G,0.794
5,C39G A60U,0.354
6,U38C G47A,0.933
7,U38C G47U,0.925
8,U38C U64G,0.785
9,U38C U64C,0.662
10,C39G A52U,0.858
11,C39G A52G,0.917
12,C39G A52C,0.89
13,G37U U38A,0.321
14,G37U U38G,0.254
15,G37U U38C,0.239
16,U38G U55G,0.283
17,U38G U55A,0.196
18,U38G U55C,0.172
19,G37U U53C,0.252
20,G37U U53G,0.206
21,U38A C57A,0.368
22,U38A C57U,0.35
23,G37U C54A,0.227
24,G37U C54G,0.168

row,Variant,self-cleavage
1,U38A A52U,0.856
2,U38A A52G,0.89
3,U38A G58A,0.848
4,U38A G58U,0.936
5,U38A G68U,0.939
6,U38A G68C,0.927
7,U38A C63A,0.663
8,U38A C63U,0.877
9,U38A C63G,0.67
10,U38C A42G,0.938
11,U38C A42U,0.827
12,U38C A42C,0.885
13,C39A U44A,0.638
14,C39A U44G,0.562
15,C39A U44C,0.432
16,G37U U55C,0.214
17,G37U U55G,0.173
18,C39G A40C,0.606
19,C39G A40U,0.644
20,U38C U67A,0.931
21,U38C U67C,0.949
22,C39A A59C,0.386
23,C39A U61C,0.328
24,C39A U61G,0.402

row,Variant,self-cleavage
1,C39A G58U,0.948
2,C39A G58A,0.625
3,C39A U43C,0.517
4,C39A U43A,0.386
5,C39A U62A,0.549
6,C39A U69G,0.964
7,G37U C45G,0.286
8,G37U C45U,0.316
9,U38A C45G,0.902
10,U38A U46G,0.943
11,G37U U61G,0.152
12,G37U U61C,0.21
13,U38A C66A,0.721
14,U38A C66G,0.764
15,U38A C66U,0.917
16,U38C G58C,0.929
17,U38C G58A,0.895
18,U38C G58U,1.01
19,G37U U46A,0.416
20,G37U U46C,0.292
21,G37U U46G,0.263
22,C39A C54U,0.765
23,C39A C54G,0.427
24,C39A C54A,0.583

row,Variant,self-cleavage
1,U38G U67G,0.273
2,U38G U67A,0.295
3,U38G U67C,0.302
4,U38C U49C,0.999
5,U38C U49G,0.916
6,U38G A42C,0.264
7,U38G A42G,0.189
8,U38G A42U,0.178
9,U38A G47U,1
10,U38A G47C,0.937
11,U38A G47A,0.916
12,U38G U62C,0.261
13,U38A C39U,0.888
14,U38C U69A,0.988
15,U38C U69C,1.06
16,U38A U69A,0.98
17,U38G G41C,0.226
18,U38A C54U,0.911
19,C39G C63A,0.494
20,C39G C63U,0.934
21,G37U G56A,0.28
22,G37U G56C,0.206
23,G37U G56U,0.224
24,C39A G47A,0.949

row,Variant,self-cleavage
1,C39A G47U,0.919
2,C39A G48A,0.968
3,C39A G68U,0.976
4,C39A G68C,0.932
5,C39A U64C,0.544
6,C39A U49A,0.902
7,C39G C54U,0.888
8,C39G C54A,0.561
9,C39G C54G,0.625
10,U38G G58C,0.236
11,U38G G58A,0.257
12,U38C G41C,0.773
13,U38C G41A,0.736
14,U38G G48C,0.236
15,U38G G48U,0.266
16,C39A U53C,0.37
17,C39A U53G,0.351
18,C39A U53A,0.447
19,G37U G68A,0.438
20,G37U G68C,0.42
21,U38C U55A,0.733
22,U38C U55C,0.556
23,C39A U55G,0.808
24,C39A U55C,0.736

row,Variant,self-cleavage
1,G37U G47U,0.365
2,G37U G47C,0.352
3,C39A C66A,0.435
4,C39A C66U,0.828
5,C39G G50C,0.771
6,G37U C57U,0.264
7,G37U C57A,0.174
8,U38C C45A,0.885
9,U38C C45U,0.922
10,U38G G65U,0.28
11,U38G G65A,0.257
12,G37U G58C,0.279
13,G37U G58U,0.362
14,C39G C45A,0.787
15,C39G C45U,0.938
16,C39G C45G,0.828
17,G37U U64C,0.283
18,G37U U64A,0.269
19,U38G A51C,0.293
20,U38A G50U,0.894
21,U38A G50C,0.911
22,U38G U44C,0.273
23,U38G U44G,0.346
24,U38A A59U,0.462

row,Variant,self-cleavage
1,U38A A59C,0.497
2,U38A A59G,0.939
3,C39G A51G,0.924
4,C39G A51C,0.718
5,C39G A51U,0.853
6,U38G C63A,0.155
7,U38A A60G,0.563
8,U38A A60C,0.418
9,U38C C54G,0.643
10,U38C C54U,0.948
11,U38A U44G,0.875
12,U38A U44A,0.854
13,U38C G48A,0.963
14,U38A U62C,0.594
15,U38A U62A,0.648
16,C39A U67G,0.932
17,C39A U67A,0.846
18,C39A U67C,0.918
19,G37U G41C,0.139
20,G37U G41A,0.244
21,U38A G56A,0.922
22,U38C G68A,0.992
23,U38C G68C,0.975
24,U38C G68U,0.997

row,Variant,self-cleavage
1,U38G C66U,0.194
2,U38G C66G,0.229
3,U38G C66A,0.285
4,G37U G50U,0.379
5,G37U C39U,0.186
6,G37U U49G,0.327
7,G37U U49A,0.258
8,G37U U49C,0.335
9,U38G G68A,0.259
10,U38C C63U,0.876
11,G37U C66G,0.201
12,G37U C66A,0.267
13,C39A C57G,0.327
14,C39A C57U,0.346
15,C39G G41U,0.436
16,C39G G41C,0.351
17,U38C U62C,0.633
18,U38C U62G,0.717
19,U38A U64C,0.776
20,U38A G41C,0.675
21,U38A G65C,0.578
22,U38A G65U,0.633
23,G37U G65U,0.265
24,G37U G65A,0.234

row,Variant,self-cleavage
1,U38A U61A,0.782
2,U38A U61G,0.637
3,U38A U61C,0.507
4,U38C A51C,0.87
5,U38C A51G,0.88
6,U38C G56C,0.401
7,U38C G56U,0.658
8,U38C G56A,0.879
9,C39A C45A,0.64
10,C39A C45U,0.708
11,U38G U46C,0.294
12,U38G U46A,0.233
13,C39A G65A,0.478
14,C39A G65C,0.361
15,C39A G65U,0.397
16,U38C U61C,0.57
17,C39A A60G,0.606
18,C39A A60U,0.24
19,C39A A60C,0.286
20,G37U C63A,0.239
21,G37U C63U,0.271
22,G37U C63G,0.312
